Assays:
Assay in all cases: FP
[1] = molecular target: GABARAPL2_(1-117) (human) (UniProt P60520)
LC3A_(1-120) (human) = LC3A_(1-120) (human) (UniProt Q9H492)
LC3C_(1-126) (human) = LC3C_(1-126) (human) (UniProt Q9BXW4)
LC3C_(1-126) (human), sequence (Q9BXW4 1-126): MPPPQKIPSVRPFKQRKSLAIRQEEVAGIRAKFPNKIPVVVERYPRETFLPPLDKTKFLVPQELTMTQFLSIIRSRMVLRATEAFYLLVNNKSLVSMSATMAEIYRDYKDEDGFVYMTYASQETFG

GABARAPL2_(1-117) (human), sequence (P60520 whole entry): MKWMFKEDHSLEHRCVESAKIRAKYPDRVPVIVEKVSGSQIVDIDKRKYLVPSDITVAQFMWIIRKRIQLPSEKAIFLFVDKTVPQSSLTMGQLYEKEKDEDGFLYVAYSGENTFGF

For PCM1-LIR, the Ki [1] was 26.2 µM, the Ki (LC3A_(1-120) (human)) was 179 µM and the Ki (LC3C_(1-126) (human)) was 84.3 µM.
